Results published in patent publication US20030148958A1 (PROCTER AND GAMBLE, published 2003).
Ends that are not written are not given here.

Assays:
CRF2R = target: T1, CRF2R; experiment: cell-based or functional assay
T1 sequence (Q13324 whole entry, species assumed, looked up): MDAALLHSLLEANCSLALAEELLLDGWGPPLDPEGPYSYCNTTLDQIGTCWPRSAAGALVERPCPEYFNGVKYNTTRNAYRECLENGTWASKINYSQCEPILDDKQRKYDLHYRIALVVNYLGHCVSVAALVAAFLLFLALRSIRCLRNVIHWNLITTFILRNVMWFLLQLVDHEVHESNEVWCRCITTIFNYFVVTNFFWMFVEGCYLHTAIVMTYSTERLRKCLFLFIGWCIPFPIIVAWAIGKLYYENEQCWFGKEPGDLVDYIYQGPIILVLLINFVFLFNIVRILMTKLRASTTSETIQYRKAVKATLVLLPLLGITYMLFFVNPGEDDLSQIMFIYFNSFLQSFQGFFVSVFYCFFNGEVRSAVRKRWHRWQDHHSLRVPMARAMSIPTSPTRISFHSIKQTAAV

CRF1R = experiment: cell-based or functional assay
For CRF1R Emax % in this document: reference of the scale not given here.
For CRF2R Emax % in this document: reference of the scale not given here.

PSLSIDLPLFLLRTLLELEKTQSQRERAEQNARIFARV-NH2 [SEQ ID NO 331]
CRF2R EC50 (CRF2R): 9.85 nM | CRF2R Emax % (CRF2R): 100% | CRF1R EC50 (CRF1R): 1000 nM | CRF1R Emax % (CRF1R): 78.7%

DNPSLSIDLPLLLLRTLLELEKTQSQRERAEQNAIIFASV-NH2 [SEQ ID NO 346]
CRF2R EC50 (CRF2R): 8.48 nM | CRF1R EC50 (CRF1R): 1000 nM

PSLSIDLPLLLLRTLLELEKTQSQRERAEQNAIIFASV-NH2 [SEQ ID NO 344]
CRF2R EC50 (CRF2R): 4.3 nM | CRF1R EC50 (CRF1R): 650 nM

DNPSLSIDLPLLLLRTLLELEKTQSQRERAEQNAIIFASV-NH2 [SEQ ID NO 347]
CRF2R EC50 (CRF2R): 22.4 nM | CRF1R EC50 (CRF1R): 1000 nM

DNPSLSIDLPLILLRTLLELARTQSQRERAEQNARIFARV-NH2 [SEQ ID NO 330]
CRF2R EC50 (CRF2R): 6 nM | CRF2R Emax % (CRF2R): 93.7% | CRF1R EC50 (CRF1R): 1000 nM | CRF1R Emax % (CRF1R): 86.8%

DNPSLSIDLPLQLLRTLLELEKTQSQRERAEQNAIIFASV-NH2 [SEQ ID NO 342]
CRF2R EC50 (CRF2R): 20.2 nM | CRF2R Emax % (CRF2R): 92.2% | CRF1R EC50 (CRF1R): 1000 nM | CRF1R Emax % (CRF1R): 19.6%

DNPSLSIDLPLILLRTLLELEKTQSQRERAEQNAIIFASV-NH2 [SEQ ID NO 345]
CRF2R EC50 (CRF2R): 39.7 nM | CRF2R Emax % (CRF2R): 100% | CRF1R EC50 (CRF1R): 1000 nM | CRF1R Emax % (CRF1R): 18.8%

DNPSLSIDLPQYLLRTLLELARTQSQRERAEQNAIIFASV-NH2 [SEQ ID NO 339]
CRF2R EC50 (CRF2R): 100 nM | CRF2R Emax % (CRF2R): 47.9% | CRF1R EC50 (CRF1R): 1000 nM | CRF1R Emax % (CRF1R): 13.2%

DNPSLSIDLPLILLRTLLELEKTQSQRERAEQNARIFARV-NH2 [SEQ ID NO 335]
CRF2R EC50 (CRF2R): 28.1 nM | CRF2R Emax % (CRF2R): 91% | CRF1R EC50 (CRF1R): 1000 nM | CRF1R Emax % (CRF1R): 49.5%

ZGPPISIDLPLQLLRKVIEIEKQEKEKQQAANNALLLATI (C-terminal amide) [SEQ ID NO 349]
CRF2R EC50 (CRF2R): 13.8 nM | CRF2R Emax % (CRF2R): 100% | CRF1R EC50 (CRF1R): 1000 nM | CRF1R Emax % (CRF1R): 44.2%

ZGPPISIDLPFQLLRKVIEIEKQEKEKQQAANNALLLDTI (C-terminal amide) [SEQ ID NO 350]
CRF2R EC50 (CRF2R): 11.6 nM | CRF2R Emax % (CRF2R): 98.1% | CRF1R EC50 (CRF1R): 1000 nM | CRF1R Emax % (CRF1R): 48%

ZGPPISIDLPFQLLRKVIEIEKQEKEKQQAANNALLLATI (C-terminal amide) [SEQ ID NO 352]
CRF2R EC50 (CRF2R): 8.26 nM | CRF2R Emax % (CRF2R): 83.7% | CRF1R EC50 (CRF1R): 780 nM | CRF1R Emax % (CRF1R): 82.6%

ZGPPISIDLSLELLRKMIEIEKQEKEKQQAANNRLLLDTI (C-terminal amide) [SEQ ID NO 355]
CRF2R EC50 (CRF2R): 6.03 nM | CRF2R Emax % (CRF2R): 95% | CRF1R EC50 (CRF1R): 18 nM | CRF1R Emax % (CRF1R): 100%

PSLSIDLPLLLLRTLLELEKTQSQRERAEQNARIFARV-NH2 [SEQ ID NO 333]
CRF2R EC50 (CRF2R): 9.85 nM | CRF2R Emax % (CRF2R): 96.9% | CRF1R EC50 (CRF1R): 1000 nM | CRF1R Emax % (CRF1R): 43.8%

DNPSLSIDLPLFLLRTLLELARTQSQRERAEQNARIFARV-NH2 [SEQ ID NO 329]
CRF2R EC50 (CRF2R): 5.15 nM | CRF2R Emax % (CRF2R): 98.3% | CRF1R EC50 (CRF1R): 1000 nM | CRF1R Emax % (CRF1R): 98.4%

IVLSLDVPIGLLQILLEQARARAAREQATTNARILARV-NH2 [SEQ ID NO 354]
CRF2R EC50 (CRF2R): 6.48 nM | CRF2R Emax % (CRF2R): 100% | CRF1R EC50 (CRF1R): 1000 nM | CRF1R Emax % (CRF1R): 13.4%

DNPSLSIDLPLLLLRTLLELARTQSQRERAEQNARIFARV-NH2 [SEQ ID NO 340]
CRF2R EC50 (CRF2R): 7.99 nM | CRF2R Emax % (CRF2R): 100% | CRF1R EC50 (CRF1R): 740 nM | CRF1R Emax % (CRF1R): 96%

DNPSLSIDLPLLLLRTLLELEKTQSQRERAEQNARIFARV-NH2 [SEQ ID NO 341]
CRF2R EC50 (CRF2R): 8.83 nM | CRF2R Emax % (CRF2R): 95.5% | CRF1R EC50 (CRF1R): 850 nM | CRF1R Emax % (CRF1R): 82.3%

IVLSLDVPIGLLQILLEQARARAAREQATTNARILARVM-NH2 [SEQ ID NO 356]
CRF2R EC50 (CRF2R): 83 nM | CRF1R EC50 (CRF1R): 1000 nM

DNPSLSIDLPLLLLRTLLELEKTQSQRERAEQNAQIFAQV-NH2 [SEQ ID NO 327]
CRF2R EC50 (CRF2R): 28.4 nM | CRF2R Emax % (CRF2R): 100% | CRF1R EC50 (CRF1R): 1000 nM | CRF1R Emax % (CRF1R): 36.5%

DNPSLSIDLPLFLLRTLLELEKTQSQRERAEQNARIFARV-NH2 [SEQ ID NO 334]
CRF2R EC50 (CRF2R): 13.2 nM | CRF2R Emax % (CRF2R): 93.5% | CRF1R EC50 (CRF1R): 1000 nM | CRF1R Emax % (CRF1R): 82.6%

DNPSLSIDLPLFLLRTLLELEKTQSQRERAEQNAIIFASV-NH2 [SEQ ID NO 343]
CRF2R EC50 (CRF2R): 13.6 nM | CRF2R Emax % (CRF2R): 96.5% | CRF1R EC50 (CRF1R): 783 nM | CRF1R Emax % (CRF1R): 62.5%

DNPSLSIDLPLLLLRTLLELEKTQSQRERAEQNARIFDRV-NH2 [SEQ ID NO 338]
CRF2R EC50 (CRF2R): 19.3 nM | CRF2R Emax % (CRF2R): 77.5% | CRF1R EC50 (CRF1R): 1000 nM | CRF1R Emax % (CRF1R): 41.1%

PSLSIDLPLLLLRTLLELEKTQSQRERAEQNAIIFASV-NH2 [SEQ ID NO 348]
CRF2R EC50 (CRF2R): 5.77 nM | CRF1R EC50 (CRF1R): 630 nM

DNPSLSIDLPLFLLRTLLELEKTQSQRERAEQNARIFDRV-NH2 [SEQ ID NO 336]
CRF2R EC50 (CRF2R): 17.8 nM | CRF2R Emax % (CRF2R): 100% | CRF1R EC50 (CRF1R): 1000 nM | CRF1R Emax % (CRF1R): 59.9%

DNPSLSIDLPLLLLRTLLELEKTQSQRERAEQNANIFANV-NH2 [SEQ ID NO 326]
CRF2R EC50 (CRF2R): 33.7 nM | CRF2R Emax % (CRF2R): 100% | CRF1R EC50 (CRF1R): 1000 nM | CRF1R Emax % (CRF1R): 30.1%

PSLSIDLPLILLRTLLELEKTQSQRERAEQNARIFARV-NH2 [SEQ ID NO 332]
CRF2R EC50 (CRF2R): 9.95 nM | CRF2R Emax % (CRF2R): 100% | CRF1R EC50 (CRF1R): 1000 nM | CRF1R Emax % (CRF1R): 61.3%

ZGPPISIDLPFQLLRKVIEIEKQEKEKQQATTNARLLDRV (C-terminal amide) [SEQ ID NO 351]
CRF2R EC50 (CRF2R): 12.9 nM | CRF2R Emax % (CRF2R): 97.4% | CRF1R EC50 (CRF1R): 1000 nM | CRF1R Emax % (CRF1R): 85.7%

ZGPPISIDLPLYLLRKMIEIEKQEKEKQQATTNARILARV (C-terminal amide) [SEQ ID NO 353]
CRF2R EC50 (CRF2R): 4.75 nM | CRF2R Emax % (CRF2R): 89.9% | CRF1R EC50 (CRF1R): 230 nM | CRF1R Emax % (CRF1R): 92.2%

DNPSLSIDLPLILLRTLLELEKTQSQRERAEQNARIFDRV-NH2 [SEQ ID NO 337]
CRF2R EC50 (CRF2R): 23.9 nM | CRF2R Emax % (CRF2R): 86.7% | CRF1R EC50 (CRF1R): 1000 nM | CRF1R Emax % (CRF1R): 36.5%

DNPSLSIDLPLLLLRTLLELEKTQSQRERAEQNAHIFAHV-NH2 [SEQ ID NO 328]
CRF2R EC50 (CRF2R): 11.7 nM | CRF2R Emax % (CRF2R): 95.7% | CRF1R EC50 (CRF1R): 1000 nM | CRF1R Emax % (CRF1R): 30.7%
